B1: KAT8 regulatory NSL complex subunit 2, residues 28 to 91; numbered along this chain, Q9H9L4 (parent)
chain: CAFTHRPCSHPRLEGQEFCIKHILEDKNAPFKQCSYISTKNGKRCPNAAPKPEKKDGVSFCAEH

Variants of: B1
Test: abundance fitness (aPCA) (normalised: wild type 0, dead -1); higher = more abundant; growth selection in yeast, the domain comes from the species named
Settings: Homo sapiens

Abundance fitness of substitutions, site by site:
N47: I -0.107; V -0.063; M -0.074; D 0.017; L -0.053; G -0.076; C -0.029; T -0.057; W -0.079; F 0.006; Q 0.061; R -0.062; E -0.049; Y -0.132; H -0.118; P -0.511; S -0.035; K -0.076; A -0.002
P52: Y -0.29; K -0.136; L -0.106; H -0.133; S -0.082; M -0.024; D -0.077; I -0.136; C -0.188; W -0.053; Q -0.061; V -0.083; F -0.01; R -0.144; G -0.068; E -0.066; A -0.072
D56: T -0.057; H -0.055; E -0.113; W -0.305; K 0.011; A -0.111; S -0.067; R -0.063; I -0.2; P -0.096; F -0.137; Q -0.073; N -0.073; C -0.067; Y -0.148
R44: H -0.051; M -0.04; S -0.038; Q 0.005; C -0.026; G -0.027; N -0.014; T -0.029; F -0.144; P -0.067; E -0.139; W -0.112; K -0.071; D -0.102
V58: C 0.012; E -0.057; W -0.121; Q 0.019; F -0.063; D 0.009; Y -0.046; R -0.082; G -0.138; L -0.046; M -0.018; K -0.037; I -0.048; P -0.098; A -0.018; N -0.178; S -0.088; T -0.1
T39: M -0.165; L -0.209; P -0.207; D -0.101; F -0.105; I -0.123; C -0.205; K -0.087; H -0.091; V -0.097; N -0.049; R -0.105; W -0.57; S -0.112; Y -0.237; A -0.13; E 0.003
C61: M -0.573; N -0.449; R -0.56; K -0.436; W -0.667; T -0.356; G -0.393; I -0.499; F -0.722; A -0.483; S -0.432; Q -0.44; V -0.426; Y -0.585; E -0.399; H -0.447
A62: I -0.057; G -0.078; V -0.059; P -0.065; K 0.095; C -0.018; S -0.055; Q -0.057; T -0.065; E -0.101; D -0.093; W -0.088; Y -0.198; H -0.081; R -0.028; L -0.087; N -0.105; F -0.111; M -0.103
K43: V -0.074; L -0.101; A -0.117; I -0.181; M -0.203; H -0.063; P -0.072; T -0.028; F -0.172; N 0.027; R -0.055; C -0.141; E -0.044; D -0.04; Q -0.057; G -0.144; Y -0.052; S -0.042; W -0.141
K40: W -0.401; F -0.037; Y -0.052; G -0.196; L 0.184; D -0.14; S -0.299
N41: V -0.031; A -0.058; K 0.019; Y -0.365; L -0.09; M -0.079
